In patent US20120316071A1 (published 2012):
Numbering of substitutions follows the chain as printed. Numbers in names are those of the source. Blank lines part the entries; values can stand above or below the binder they belong to.

Key:
[1] = molecular target: T1, rHuman P-Cadherin/Fc Chimera, CF (R&D Systems Cat#861-PC) (human, UniProt P22223 108-654); assay: MSD Multispot ECL, antigen spotted on plate, Fab in solution; blank spot of the row 337
T1 construct: Bought recombinant Fc chimera; Fc part of the bought chimera not given

[2] = molecular target: T2, rHuman EGF R/Fc Chimera, CF (R&D Systems Cat#344-ER) (human, UniProt P00533 25-645); assay: as above
T2 construct: Bought recombinant Fc chimera; also called epidermal growth factor receptor; Fc part of the bought chimera not given

[3] = molecular target: T3, Recombinant Human DLL4 (R&D Systems Cat#1506-D4/CF) (human, UniProt Q9NR61 27-524); assay: as above
T3 construct: Bought recombinant protein; also called delta-like protein 4; Delta-like 4

[4] = molecular target: T4, rHuman HGF R/c-MET/Fc Chimera, CF (R&D Systems Cat#358-MT/CF) (human, UniProt P08581 25-932); assay: as above
T4 construct: Bought recombinant Fc chimera; also called HGF R/Fc; hepatocyte growth factor receptor; Fc part of the bought chimera not given
T4 sequence (P08581 25-932, change not shown): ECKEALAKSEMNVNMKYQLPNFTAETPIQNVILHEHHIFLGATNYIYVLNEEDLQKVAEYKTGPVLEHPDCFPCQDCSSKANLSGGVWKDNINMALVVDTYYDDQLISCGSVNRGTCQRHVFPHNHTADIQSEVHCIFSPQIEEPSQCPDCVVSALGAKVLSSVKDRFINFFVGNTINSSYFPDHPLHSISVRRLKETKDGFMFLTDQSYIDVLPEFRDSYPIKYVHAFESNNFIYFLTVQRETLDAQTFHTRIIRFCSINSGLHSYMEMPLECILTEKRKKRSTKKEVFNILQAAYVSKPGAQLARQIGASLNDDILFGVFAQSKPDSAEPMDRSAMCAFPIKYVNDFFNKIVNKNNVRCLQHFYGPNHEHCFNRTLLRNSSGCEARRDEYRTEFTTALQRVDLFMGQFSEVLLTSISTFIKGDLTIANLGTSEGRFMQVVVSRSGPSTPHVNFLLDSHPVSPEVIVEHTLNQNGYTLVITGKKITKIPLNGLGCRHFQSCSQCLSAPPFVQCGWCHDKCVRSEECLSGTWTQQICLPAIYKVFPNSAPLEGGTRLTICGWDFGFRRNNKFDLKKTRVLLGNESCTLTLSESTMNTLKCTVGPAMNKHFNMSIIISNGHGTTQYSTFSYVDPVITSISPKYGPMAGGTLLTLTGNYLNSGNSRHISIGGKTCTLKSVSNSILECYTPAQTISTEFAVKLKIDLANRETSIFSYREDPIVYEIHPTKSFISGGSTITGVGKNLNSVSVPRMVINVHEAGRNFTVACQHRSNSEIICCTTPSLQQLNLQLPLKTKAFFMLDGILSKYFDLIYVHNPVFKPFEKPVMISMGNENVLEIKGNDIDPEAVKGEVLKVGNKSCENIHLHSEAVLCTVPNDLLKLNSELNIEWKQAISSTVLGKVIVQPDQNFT

[5] = molecular target: T5, rHuman Erythropoietin R/Fc Chimera, CF (R&D Systems Cat#963-ER) (human, UniProt P19235 25-250); assay: as above
T5 construct: Bought recombinant Fc chimera; also called EPO R; EPO R/Fc; Fc part of the bought chimera not given
T5 sequence (looked up): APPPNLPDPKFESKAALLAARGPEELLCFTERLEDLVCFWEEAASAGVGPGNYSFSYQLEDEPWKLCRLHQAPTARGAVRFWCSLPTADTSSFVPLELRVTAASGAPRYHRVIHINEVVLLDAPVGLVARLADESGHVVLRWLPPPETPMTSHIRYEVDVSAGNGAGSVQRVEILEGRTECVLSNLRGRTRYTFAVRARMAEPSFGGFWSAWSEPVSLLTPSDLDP

[6] = molecular target: T6, rHuman Notch-1/Fc Chimera, CF (R&D Systems Cat#3647-TK) (human, UniProt P46531 19-526); assay: as above
T6 construct: Bought recombinant Fc chimera; Fc part of the bought chimera not given

[7] = molecular target: T7, rHuman CD44/Fc Chimera, CF (R&D Systems Cat#3660-CD) (human, UniProt P16070 21-220); assay: as above
T7 construct: Bought recombinant Fc chimera; Fc part of the bought chimera not given

[8] = molecular target: T1, rHuman P-Cadherin/Fc Chimera, CF (R&D …); assay: MSD Multispot ECL, antigen spotted on plate, Fab in solution; blank spot of the row 316
[9] = molecular target: T2, rHuman EGF R/Fc Chimera, CF (R&D …); assay: as above
[10] = molecular target: T3, Recombinant Human DLL4 (R&D Systems …); assay: as above
[11] = molecular target: T4, rHuman HGF R/c-MET/Fc Chimera, CF (R&D …); assay: as above
[12] = molecular target: T5, rHuman Erythropoietin R/Fc Chimera, CF …; assay: as above
[13] = molecular target: T6, rHuman Notch-1/Fc Chimera, CF (R&D …); assay: as above
[14] = molecular target: T7, rHuman CD44/Fc Chimera, CF (R&D Systems …); assay: as above
[15] = molecular target: T1, rHuman P-Cadherin/Fc Chimera, CF (R&D …); assay: MSD Multispot ECL, antigen spotted on plate, Fab in solution; blank spot of the row 297
[16] = molecular target: T2, rHuman EGF R/Fc Chimera, CF (R&D …); assay: as above
[17] = molecular target: T3, Recombinant Human DLL4 (R&D Systems …); assay: as above
[18] = molecular target: T4, rHuman HGF R/c-MET/Fc Chimera, CF (R&D …); assay: as above
[19] = molecular target: T5, rHuman Erythropoietin R/Fc Chimera, CF …; assay: as above
[20] = molecular target: T6, rHuman Notch-1/Fc Chimera, CF (R&D …); assay: as above
[21] = molecular target: T1, rHuman P-Cadherin/Fc Chimera, CF (R&D …); assay: MSD Multispot ECL, antigen spotted on plate, Fab in solution; blank spot of the row 300
[22] = molecular target: T2, rHuman EGF R/Fc Chimera, CF (R&D …); assay: as above
[23] = molecular target: T4, rHuman HGF R/c-MET/Fc Chimera, CF (R&D …); assay: as above
[24] = molecular target: T5, rHuman Erythropoietin R/Fc Chimera, CF …; assay: as above
[25] = molecular target: T6, rHuman Notch-1/Fc Chimera, CF (R&D …); assay: as above
[26] = molecular target: T1, rHuman P-Cadherin/Fc Chimera, CF (R&D …); assay: MSD Multispot ECL, antigen spotted on plate, Fab in solution; blank spot of the row 351
[27] = molecular target: T2, rHuman EGF R/Fc Chimera, CF (R&D …); assay: as above
[28] = molecular target: T3, Recombinant Human DLL4 (R&D Systems …); assay: as above
[29] = molecular target: T4, rHuman HGF R/c-MET/Fc Chimera, CF (R&D …); assay: as above
[30] = molecular target: T5, rHuman Erythropoietin R/Fc Chimera, CF …; assay: as above
[31] = molecular target: T6, rHuman Notch-1/Fc Chimera, CF (R&D …); assay: as above
[32] = molecular target: T7, rHuman CD44/Fc Chimera, CF (R&D Systems …); assay: as above

B1: Fab VH5-51_IGHD5-18*01>3_IGHJ4*01 G100K/G104T F29A & V3-4_IGLJ1*01 (Fab, V domains shown)
VH: EVQLVQSGAEVKKPGESLKISCKGSGYSATSYWIGWVRQMPGKGLEWMGIIYPGDSDTRYSPSFQGQVTISADKSISTAYLQWSSLKASDTAMYYCARRKYSYTYDYFDYWGQGTLVTVSS
VL: QTVVTQEPSFSVSPGGTVTLTCGLSSGSVSTSYYPSWYQQTPGQAPRTLIYSTNTRSSGVPDRFSGSILGNKAALTITGAQADDESDYYCVLYMGSGISYVFGTGTKVTVL
notes: Fab made in E. coli; VH cloned into Plasmid A (CH1, His6 and Flag tags), lambda VL into Plasmid E (lambda CL); also called KT F29A
ECL signal [1]: 502 | ECL signal [2]: 887 | ECL signal [3]: 22900 | ECL signal [4]: 985 | ECL signal [5]: 586 | ECL signal [6]: 601 | ECL signal [7]: 621

B3: Fab VH5-51_IGHD5-18*01>3_IGHJ4*01 G100K/G104T G35A & V3-4_IGLJ1*01 (Fab, V domains shown)
VH: B1 VH with A29F, G35A
VL: B1 VL
notes: Fab made in E. coli; VH cloned into Plasmid A (CH1, His6 and Flag tags), lambda VL into Plasmid E (lambda CL); also called KT G35A
ECL signal [15]: 305 | ECL signal [16]: 760 | ECL signal [17]: 53600 | ECL signal [18]: 939 | ECL signal [19]: 506 | ECL signal [20]: 400

B4: Fab VH5-51_IGHD5-18*01>3_IGHJ4*01 G100K/G104T I34A & V3-4_IGLJ1*01 (Fab, V domains shown)
VH: B1 VH with A29F, I34A
VL: B1 VL
notes: Fab made in E. coli; VH cloned into Plasmid A (CH1, His6 and Flag tags), lambda VL into Plasmid E (lambda CL); also called KT I34A
ECL signal [21]: 349 | ECL signal [22]: 883 | ECL signal [23]: 1080 | ECL signal [24]: 505 | ECL signal [25]: 564

Second part, the binder after the results:

ECL signal [8]: 317 | ECL signal [9]: 839 | ECL signal [10]: 35400 | ECL signal [11]: 1040 | ECL signal [12]: 586 | ECL signal [13]: 432 | ECL signal [14]: 497
B2: Fab VH5-51_IGHD5-18*01>3_IGHJ4*01 G100K/G104T S28A & V3-4_IGLJ1*01 (Fab, V domains shown)
VH: B1 VH with S28A, A29F
VL: B1 VL
notes: Fab made in E. coli; VH cloned into Plasmid A (CH1, His6 and Flag tags), lambda VL into Plasmid E (lambda CL); also called KT S28A

ECL signal [26]: 438 | ECL signal [27]: 853 | ECL signal [28]: 24300 | ECL signal [29]: 868 | ECL signal [30]: 553 | ECL signal [31]: 539 | ECL signal [32]: 698
B5: Fab VH5-51_IGHD5-18*01>3_IGHJ4*01 G100K/G104T T30A & V3-4_IGLJ1*01 (Fab, V domains shown)
VH: B1 VH with A29F, T30A
VL: B1 VL
notes: Fab made in E. coli; VH cloned into Plasmid A (CH1, His6 and Flag tags), lambda VL into Plasmid E (lambda CL); also called KT T30A
